US20240218079A1, “PLASMA KALLIKREIN ANTIBODIES AND USES THEREOF” (Astria Therapeutics, Inc., priority 2021, published 2024)

How the values were obtained:
Thrombin a = experiment: cell-based or functional assay
Hepsin = experiment: cell-based or functional assay

DX-2930 (antibody), sequence (VH): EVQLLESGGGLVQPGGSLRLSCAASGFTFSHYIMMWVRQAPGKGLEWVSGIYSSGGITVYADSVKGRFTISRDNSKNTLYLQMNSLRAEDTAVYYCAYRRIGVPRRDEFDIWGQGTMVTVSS
DX-2930 (antibody), sequence (VL): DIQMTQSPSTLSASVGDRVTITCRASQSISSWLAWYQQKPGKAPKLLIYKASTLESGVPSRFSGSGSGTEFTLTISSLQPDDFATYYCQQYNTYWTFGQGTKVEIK

DX-2930 (antibody)
> 1000 nM: IC50, protease inhibition assay, fluorescent peptide substrate, Duplicate 1 (Thrombin a) | IC50, protease inhibition assay, fluorescent peptide substrate, Duplicate 2 (Thrombin a) | IC50, protease inhibition assay, fluorescent peptide substrate, Duplicate 1 (Hepsin) | IC50, protease inhibition assay, fluorescent peptide substrate, Duplicate 2 (Hepsin)
